From patent US20100266598A1 come the findings set out here.

The target in assay [1] is Rhesus CCR5 (Rhesus Macaque). Kind of assay: cell-based or functional assay.
The target of assay [2] is human CCR5 (human) (UniProt P51681). As to the kind of experiment: cell-based or functional assay.

In assay [1], monoclonal antibody (mAb) 2D7 came in with a % Inhibition, Rhesus PBMC (#810) x 12E1/SIV239, inhibitor at 20 µg/ml of 4% and a No. of Syncytia, Rhesus PBMC (#810) x 12E1/SIV239, inhibitor at 20 µg/ml of 258 syncytia. In assay [2], the % Inhibition, PM1 x 12E1/BaL, inhibitor at 20 µg/ml was determined as 99%; the CCR5-tropic virus neutralization (percent inhibition of p24) at 50 µg/ml was in the range of 82 to 93%; the IC50 of PBMC infection by BaL, JR-CSF and 92US657 fell in the range of 2 to 4 µg/mL; the No. of Syncytia, PM1 x 12E1/BaL, inhibitor at 20 µg/ml came out at 5 syncytia.

In assay [1], pre-immune rabbit IgG (antibody) showed a % Inhibition, Rhesus PBMC (#810) x 12E1/SIV239, inhibitor at 25 µg/ml of 0% and a No. of Syncytia, Rhesus PBMC (#810) x 12E1/SIV239, inhibitor at 25 µg/ml of 285 syncytia. In assay [2], this substance yielded a % Inhibition, PM1 x 12E1/BaL, inhibitor at 25 µg/ml of 0% and a No. of Syncytia, PM1 x 12E1/BaL, inhibitor at 25 µg/ml of 487 syncytia.
